Test results from patent US20110112279A1.

Biological target: receptor for STOP-1 on the cell surface (unidentified; HeLa, HT1080, HUVEC and MDA-MB-435 cells) (human)
Assay: flow cytometry on MDA-MB-435 cells, flag-tagged STOP-1 alone, anti-flag M2-FITC detection; detection antibody alone gave approximately 7.99

“flag-tagged full length human STOP-1 (from UniProt Q96CG8 31-243) (ligand)” was tested, and the geometric mean value of the signal intensity was 13.2.
